Source: patent publication US20070134660

B1: KIF14 motor domain V342-K720 (SEQ ID NO:4) (protein)
chain: MVQNTSAGKDPLKVENSQVTVAVRVRPFTKREKIEKASQVVFMSGKEITVEHPDTKQVYNFIYDVSFWSFDECHPHYASQTTVYEKLAAPLLERAFEGFNTCLFAYGQTGSGKSYTMMGFSEEPGIIPRFCEDLFSQVARKQTQEVSYHIEMSFFEVYNEKIHDLLVCKDENGQRKQPLRVREHPVYGPYVEALSMNIVSSYADIQSWLELGNKQRATAATGMNDKSSRSHSVFTLVMTQTKTEFVEGEEHDHRITSRINLIDLAGSERCSTAHTNGDRLKEGVSINKSLLTLGKVISALSEQANQRSVFIPYRESVLTWLLKESLGGNSKTAMIATISPAASNIEETLSTLRYANQARLIVNIAKVNEDMNAKLIRELKLEHHHHHHHHHHHH
B2: hu_KIF3A (1-350H) motor domain (SEQ ID NO:16) (protein)
chain: MPINKSEKPESCDNVKVVVRCRPLNEREKSMCYKQAVSVDEMRGTITVHKTDSSNEPPKTFTFDTVFGPESKQLDVYNLTARPIIDSVLEGYNGTIFAYGQTGTGKTFTMEGVRAIPELRGIIPNSFAHIFGHIAKAEGDTRFLVRVSYLEIYNEEVRDLLGKDQTQRLEVKERPDVGVYIKDLSAYVVNNADDMDRIMTLGHKNRSVGATNMNEHSSRSHAIFTITIECSEKGIDGNMHVRMGKLHLVDLAGSERQAKTGATGQRLKEATKINLSLSTLGNVISALVDGKSTHVPYRNSKLTRLLQDSLGGNSKTMMCANIGPADYNYDETISTLRYANRAKNIKNKARVDKLAAALEHHHHHH
B3: KIF14 motor domain V354-D710 (SEQ ID NO:7) (protein)
chain: MVENSQVTVAVRVRPFTKREKIEKASQVVFMSGKEITVEHPDTKQVYNFIYDVSFWSFDECHPHYASQTTVYEKLAAPLLERAFEGFNTCLFAYGQTGSGKSYTMMGFSEEPGIIPRFCEDLFSQVARKQTQEVSYHIEMSFFEVYNEKIHDLLVCKDENGQRKQPLRVREHPVYGPYVEALSMNIVSSYADIQSWLELGNKQRATAATGMNDKSSRSHSVFTLVMTQTKTEFVEGEEHDHRITSRINLIDLAGSERCSTAHTNGDRLKEGVSINKSLLTLGKVISALSEQANQRSVFIPYRESVLTWLLKESLGGNSKTAMIATISPAASNIEETLSTLRYANQARLIVNIAKVNEDLEHHHHHHHHHHHH
B4: hu_uKHC (1-337H) motor domain (SEQ ID NO:17) (protein)
chain: MADLAECNIKVMCRFRPLNESEVNRGDKYIAKFQGEDTVVIASKPYAFDRVFQSSTSQEQVYNDCAKKIVKDVLEGYNGTIFAYGQTSSGKTHTMEGKLHDPEGMGIIPRIVQDIFNYIYSMDENLEFHIKVSYFEIYLDKIRDLLDVSKTNLSVHEDKNRVPYVKGCTERFVCSPDEVMDTIDEGKSNRHVAVTNMNEHSSRSHSIFLINVKQENTQTEQKLSGKLYLVDLAGSEKVSKTGAEGAVLDEAKNINKSLSALGNVISALAEGSTYVPYRDSKMTRILQDSLGGNCRTTIVICCSPSSYNESETKSTLLFGQRAKTIKNTVCVNVELTAVDKLAAALEHHHHHH
B5: KIF14 motor domain V354-K720 (SEQ ID NO:6) (protein)
chain: MVENSQVTVAVRVRPFTKREKIEKASQVVFMSGKEITVEHPDTKQVYNFIYDVSFWSFDECHPHYASQTTVYEKLAAPLLERAFEGFNTCLFAYGQTGSGKSYTMMGFSEEPGIIPRFCEDLFSQVARKQTQEVSYHIEMSFFEVYNEKIHDLLVCKDENGQRKQPLRVREHPVYGPYVEALSMNIVSSYADIQSWLELGNKQRATAATGMNDKSSRSHSVFTLVMTQTKTEFVEGEEHDHRITSRINLIDLAGSERCSTAHTNGDRLKEGVSINKSLLTLGKVISALSEQANQRSVFIPYRESVLTWLLKESLGGNSKTAMIATISPAASNIEETLSTLRYANQARLIVNIAKVNEDMNAKLIRELKLEHHHHHHHHHHHH
B6: hu-KSP (1-367H) motor domain (SEQ ID NO:15) (protein)
chain: MASQPNSSAKKKEEKGKNIQVVVRCRPFNLAERKASAHSIVECDPVRKEVSVRTGGLADKSSRKTYTFDMVFGASTKQIDVYRSVVCPILDEVIMGYNCTIFAYGQTGTGKTFTMEGERSPNEEYTWEEDPLAGIIPRTLHQIFEKLTDNGTEFSVKVSLLEIYNEELFDLLNPSSDVSERLQMFDDPRNKRGVIIKGLEEITVHNKDEVYQILEKGAAKRTTAATLMNAYSSRSHSVFSVTIHMKETTIDGEELVKIGKLNLVDLAGSENIGRSGAVDKRAREAGNINQSLLTLGRVITALVERTPHVPYRESKLTRILQDSLGGRTRTSIIATISPASLNLEETLSTLEYAHRAKNILNKPEVNQHHHHHH
B7: hu_KIF1B (1-350H) motor domain (SEQ ID NO:21) (protein)
chain: MSGASVKVAVRVRPFNSRETSKESKCIIQMQGNSTSIINPKNPKEAPKSFSFDYSYWSHTSPEDPCFASQNRVYNDIGKEMLLHAFEGYNVCIFAYGQTGAGKSYTMMGKQEESQAGIIPQLCEELFEKINDNCNEEMSYSVEVSYMEIYCERVRDLLNPKNKGNLRVREHPLLGPYVEDLSKLAVTSYTDIADLMDAGNKARTVAATNMNETSSRSHAVFTIVFTQKKHDNETNLSTEKVSKISLVDLAGSERADSTGAKGTRLKEGANINKSLTTLGKVISALAEVDNCTSKSKKKKKTDFIPYRDSVLTWLLRENLGGNSRTAMVAALSPADINYDETLSTLRYADRVDKLAAALEHHHHHH
B8: hu_nKHC (1-340H) motor domain (SEQ ID NO:18) (protein)
chain: MAETNNECSIKVLCRFRPLNQAEILRGDKFIPIFQGDDSVVIGGKPYVFDRVFPPNTTQEQVYHACAMQIVKDVLAGYNGTIFAYGQTSSGKTHTMEGKLHDPQLMGIIPRIARDIFNHIYSMDENLEFHIKVSYFEIYLDKIRDLLDVTKTNLSVHEDKNRVPFVKGCTERFVSSPEEILDVIDEGKSNRHVAVTNMNEHSSRSHSIFLINIKQENMETEQKLSGKLYLVDLAGSEKVSKTGAEGAVLDEAKNINKSLSALGNVISALAEGTKSYVPYRDSKMTRILQDSLGGNCRTTMFICCSPSSYNDAETKSTLMFGQRAKTIKNTASVNLELTAEVDKLAAALEHHHHHH
B9: hu_MKLP-1 (1-433H) motor domain (SEQ ID NO:20) (protein)
chain: MARAKTPRKPTVKKGSQTNLKDPVGVYCRVRPLGFPDQECCIEVINNTTVQLHTPEGYRLNRNGDYKETQYSFKQVFGTHTTQKELFDVVANPLVNDLIHGKNGLLFTYGVTGSGKTHTMTGSPGEGGLLPRCLDMIFNSIGSFQAKRYVFKSNDRNSMDIQCEVDALLERQKREAMPNPKTSSSKRQVDPEFADMITVQEFCKAEEVDEDSVYGVFVSYIEIYNNYIYDLLEEVPFDPIKPKPPQSKLLREDKNHNMYVAGCTEVEVKSTEEAFEVFWRGQKKRRIANTHLNRESSRSHSVFNIKLVQAPLDADGDNVLQEKEQITISQLSLVDLAGSERTNRTRAEGNRLREAGNINQSLMTLRTCMDVLRENQMYGTNKMVPYRDSKLTHLFKNYFDGEGKVRMIVCVNPKAEDYEENLQVMRFAEVTQEVDKLAAALEHHHHHH
B10: KIF14 motor domain V342-D710 (SEQ ID NO:5) (protein)
chain: MVQNTSAGKDPLKVENSQVTVAVRVRPFTKREKIEKASQVVFMSGKEITVEHPDTKQVYNFIYDVSFWSFDECHPHYASQTTVYEKLAAPLLERAFEGFNTCLFAYGQTGSGKSYTMMGFSEEPGIIPRFCEDLFSQVARKQTQEVSYHIEMSFFEVYNEKIHDLLVCKDENGQRKQPLRVREHPVYGPYVEALSMNIVSSYADIQSWLELGNKQRATAATGMNDKSSRSHSVFTLVMTQTKTEFVEGEEHDHRITSRINLIDLAGSERCSTAHTNGDRLKEGVSINKSLLTLGKVISALSEQANQRSVFIPYRESVLTWLLKESLGGNSKTAMIATISPAASNIEETLSTLRYANQARLIVNIAKVNEDLEHHHHHHHHHHHH
B11: hu_CENP-E (1-340H) motor domain (SEQ ID NO:19) (protein)
chain: MAEEGAVAVCVRVRPLNSREESLGETAQVYWKTDNNVIYQVDGSKSFNFDRVFHGNETTKNVYEEIAAPIIDSAIQGYNGTIFAYGQTASGKTYTMMGSEDHLGVIPRAIHDIFQKIKKFPDREFLLRVSYMEIYNETITDLLCGTQKMKPLIIREDVNRNVYVADLTEEVVYTSEMALKWITKGEKSRHYGETKMNQRSSRSHTIFRMILESREKGEPSNCEGSVKVSHLNLVDLAGSERAAQTGAAGVRLKEGCNINRSLFILGQVIKKLSDGQVGGFINYRDSKLTRILQNSLGGNAKTRIICTITPVSFDETLTALQFASTAKYMKNTPYVNEVSTVDKLAAALEHHHHHH

These proteins were tested against taxol-stabilized microtubules.

Protein	K1/2 (MT)	Km (Michaelis-Menten fit of microtubule utilization)	k(obs) (min-1) at MT 0 micromolar	k(obs) (min-1) at MT 0.25 micromolar	k(obs) (min-1) at MT 0.5 micromolar	k(obs) (min-1) at MT 1 micromolar	k(obs) (min-1) at MT 2.5 micromolar	k(obs) (min-1) at MT 5 micromolar	kcat (Michaelis-Menten fit of microtubule utilization)	kcat/Km under optimized conditions (MES, pH 6.0, 40 mM KCl)
B1	10.6 µM	a Km of 2.6+/-1.1 (s.d.)	0 min⁻¹	0.36 min⁻¹	1.57 min⁻¹	2.79 min⁻¹	9.1 min⁻¹	13.2 min⁻¹	a kcat of 21.3+/-3.5 (s.d.)	compared to 13.2 under optimized conditions (MES, pH 6.0,40 mM KCl)
B2	0.17 µM									
B3			0 min⁻¹	0.39 min⁻¹	1.07 min⁻¹	1.87 min⁻¹	5.79 min⁻¹	10.2 min⁻¹		
B4	0.34 µM									
B5			0 min⁻¹	0.73 min⁻¹	1.49 min⁻¹	4.12 min⁻¹	9.29 min⁻¹	18.3 min⁻¹		
B6	0.3 µM									
B7	0.035 µM									
B8	1.1 µM									
B9	0.24 µM									
B10			0 min⁻¹	0.03 min⁻¹	0.73 min⁻¹	0.79 min⁻¹	3.02 min⁻¹	5.91 min⁻¹		
B11	1.6 µM									

Same assay, conditions: not given

Protein	kcat/Km under unoptimized conditions (K-PIPES, pH 6.7, 90 mM KCl)	microtubule-dependent ATP hydrolysis activity
B1	the kcat/Km for the V342-K720 motor domain (SEQ ID NO:4) under unoptimized conditions (K-PIPES, pH 6.7, 90 mM KCl) was 224	All of the KIF14 MD proteins showed microtubule-dependent ATP hydrolysis activity
B3		All of the KIF14 MD proteins showed microtubule-dependent ATP hydrolysis activity
B5		All of the KIF14 MD proteins showed microtubule-dependent ATP hydrolysis activity
B10		All of the KIF14 MD proteins showed microtubule-dependent ATP hydrolysis activity
